Measured values published in PMC11940719, “Assembly Formation of P65 Protein, Featured by an Intrinsically Disordered Region Involved in Gliding Machinery of Mycoplasma pneumoniae” (Biomolecules, 2025).
Where two headings read alike, the source gives them in different places.

Tests used:
[1] = target: P65 fragment C (tryptic fragment of region II) (Mycoplasma pneumoniae (strain M129-B7)); assay: AUC; sedimentation velocity in 150 mM NaCl, 20 mM Tris-HCl (pH 8.0); absorbance scans at 10-minute intervals; C(s) distribution (SEDFIT)
[2] = target: the molecule itself; assay: as above
[3] = target: the molecule itself; assay: as above; remark: listed apart in the source
[4] = target: the molecule itself; assay: negative staining electron microscopy; proteins at 40 µg/mL stained with 2% uranyl acetate on carbon-coated grids, 80 kV

P65 fragment C (tryptic fragment of region II) (domain or fragment)
stoichiometry N [1]: 3

B1: full-length P65 protein of Mycoplasma pneumoniae (natural protein)
chain: MDINKPGWNQSDQQATAYDPNQQQYYGDGSTYYDPDQAVDPNQAYYPDPNTYPDAAAYYGYGQDGQAYPQDYAQDPNQAYYADPNAYQDPNAYTDPNAYVDPNAYQDPNAYVDPNNYTDPNAYYGYGQDGQAYPQDYAQDPNQAYYADPNAYQDPNAYTDPYYVTSTDPNAYYGQVDNVPALEASDLAYEVTPQEQAAEQELFSEPETKVIREIHEFPFEKIRSYFQTDFDSYNSRLTQLKDKLDNAIFSMRKAIDTVKENSANLQIMKQNFERQLKEQQTQRLTSNTDAEKIGAKINQLEERMQRLSRTMESVEWTKKEPRQEQFDPRFVDPRNFNNYVNNTDTMMSMFEKVLMMNLLRSTTPVQPPVQYFTPQPLTASPRPVYEEPISASFRRRGYRGDEFYE
notes: P65 protein of Mycoplasma pneumoniae strain M129-B7, p65 gene (AGC04228), codon-optimised, in pET-15b (NdeI, BamHI); 405 residues; Forms a multimer of more than 60 subunits (about 3.10 x 10^6 Da) by analytical ultracentrifugation; The printed mass of 49,203 Da probably includes the tag peptide; also called Whole
stoichiometry N [2]: > 60

B2: P65 fragment D (regions I and II, residues 1-320) (domain or fragment)
chain: MDINKPGWNQSDQQATAYDPNQQQYYGDGSTYYDPDQAVDPNQAYYPDPNTYPDAAAYYGYGQDGQAYPQDYAQDPNQAYYADPNAYQDPNAYTDPNAYVDPNAYQDPNAYVDPNNYTDPNAYYGYGQDGQAYPQDYAQDPNQAYYADPNAYQDPNAYTDPYYVTSTDPNAYYGQVDNVPALEASDLAYEVTPQEQAAEQELFSEPETKVIREIHEFPFEKIRSYFQTDFDSYNSRLTQLKDKLDNAIFSMRKAIDTVKENSANLQIMKQNFERQLKEQQTQRLTSNTDAEKIGAKINQLEERMQRLSRTMESVEWTKKE
notes: P65 protein of Mycoplasma pneumoniae strain M129-B7 (AGC04228), residues 1-320 (regions I and II); No cleavage of the tag is described; The printed theoretical mass of 39,080 Da probably includes the tag peptide; source: E. coli BL21(DE3), soluble fraction, purified (HisTrap HP, size exclusion chromatography)
stoichiometry N [3]: 3

B3: P65 fragment B (residues 185-405) (domain or fragment)
chain: SDLAYEVTPQEQAAEQELFSEPETKVIREIHEFPFEKIRSYFQTDFDSYNSRLTQLKDKLDNAIFSMRKAIDTVKENSANLQIMKQNFERQLKEQQTQRLTSNTDAEKIGAKINQLEERMQRLSRTMESVEWTKKEPRQEQFDPRFVDPRNFNNYVNNTDTMMSMFEKVLMMNLLRSTTPVQPPVQYFTPQPLTASPRPVYEEPISASFRRRGYRGDEFYE
notes: P65 protein of Mycoplasma pneumoniae strain M129-B7 (AGC04228), residues 185-405 by mass spectrometry (26.3 kDa; theoretical 26,279 Da); peptide mass fingerprinting covers at least residues 212-405; source: the digest containing fragment B was used
binding result [4]: binds
